# Ends that are not written are not given here.
# Columns and labels:
# AF4-AF9 interaction = molecular target: T1, AF4-AF9 interaction (Homo sapiens, UniProt P42568); assay: Enzyme-linked protein binding assay, GST-AF4(749-775) and biotinylated AF9; conditions: peptide 20 μg/ml; FIG. 2A
# T1 construct: made in house; host or cells: GST-AF4 from E. coli; AF9 by coupled in vitro transcription/translation (Promega)
# T1 sequence (P42568 211-568): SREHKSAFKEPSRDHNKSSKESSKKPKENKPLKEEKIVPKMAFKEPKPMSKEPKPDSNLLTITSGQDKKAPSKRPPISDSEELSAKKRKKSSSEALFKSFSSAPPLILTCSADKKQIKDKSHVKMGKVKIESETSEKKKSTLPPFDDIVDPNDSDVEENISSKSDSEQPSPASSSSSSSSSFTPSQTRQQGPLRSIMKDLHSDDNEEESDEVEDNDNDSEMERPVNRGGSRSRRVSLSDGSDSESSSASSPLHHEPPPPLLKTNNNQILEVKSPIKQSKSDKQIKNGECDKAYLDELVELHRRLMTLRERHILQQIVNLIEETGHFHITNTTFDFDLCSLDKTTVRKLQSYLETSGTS
# Experimental: Next, an enzyme-linked protein binding assay was developed as a potential high throughput tool to semi-quantitatively assess the ability of various compounds to disrupt the AF4-AF9 interaction in vitro (FIGS. 2A and 2B).
# GST-AF4 (749–775) SEQ ID NO: 107 was bound to glutathione-coated 96-well plates and incubated with biotinylated AF9 in conjunction with 20 μg/ml of the following peptides: • (a) Pen-[…], a fusion protein of PENETRATIN™ transporter peptide to the amino terminus of […](SEQ ID NO: 110, PFmut), • (b) Pen-[…], a fusion protein of the transporter protein PENETRATIN™ to the amino terminus of […](SEQ ID NO: 2; or PFWT), • (c) […] or […](SEQ ID NO: 111); • (d) […] or […] (SEQ ID NO: 112); • (e) […] or […](SEQ ID NO: 113), or with • (f) DMSO, or • (g) GST-Cx, a control.
# The plate was washed and the retention of AF9 was determined by a colorimetric assay using streptavidin-alkaline phosphatase and pNPP as a substrate. […] At this same peptide concentration, PFmut (a) in col. […] The 10 amino acid peptide (d) in col. 6 is the smallest molecule found to have activity in vitro.
# B1 leukemia cell line = assay: MTT viability assay; format: cell-based; conditions: 72 h, differing concentrations
# Experimental: All cell lines were maintained in RPMI 1640+10% FCS. 100 μl aliquots of cell suspension (5×10^5 cells/ml) were cultured in flat-bottomed 96 well plates in the presence of different concentrations of peptides. After 72 h incubation at 37° C. in humidified air containing 5% CO2, viable cell number was determined by MTT assay as follows: 10 μl of 3-[4,5-dimethylthiazol-2-yl]-2,5-diphenyl tetrazolium bromide (MTT) (5 mg/ml concentration) (Sigma) was added to each well and incubated further for 6 h. Formazan crystals that are formed during incubation were dissolved in 100 μl of acidified isopropanol. The optical density at 550 nm (which is linearly related to the number of viable cells) was measured using a plate spectrophotometer. Growth characteristics of the leukemia cell lines were also determined for cells by Trypan Blue exclusion.
Substance,AF9 binding to GST-AF4 (retention of AF9) (AF4-AF9 interaction),cell viability (B1 leukemia cell line)
LWVKIDLDLLSR [(c)],block AF9 binding,
Leu-Trp-Val-Lys-Ile-Asp-Leu-Asp-Leu-Leu- (LWVKIDLDLL; structurally based on a fragment of the naturally occuring human and murine AF4 protein family members) [(d)],block AF9 binding,
Lys-Lys-Lys-Lys-Lys-Lys-Arg-Lys-Val-Leu-Ile-Val-Arg-Ile-Asp-Leu-Asp-Leu-Leu-Ser- (KKKKKKRKVLIVRIDLDLLS; structurally based on a fragment of the naturally occuring human and murine AF4 protein family members) [SPK4],,inhibits
WVKIDLDL [(e)],did not interfere with AF9 binding,

# From patent US7189691B2, “Methods and compositions for treating leukemia” (The Administrators of the Tulane Educational Fund, priority 2004, dated 2007)
